Molecular target: recombinant human CD33 protein (human, UniProt P20138 18-259, limits assumed)
Test: ELISA, recombinant human CD33 coated on the plate, antibody as comparator

Chain of recombinant human CD33 protein (P20138 18-259 limits assumed): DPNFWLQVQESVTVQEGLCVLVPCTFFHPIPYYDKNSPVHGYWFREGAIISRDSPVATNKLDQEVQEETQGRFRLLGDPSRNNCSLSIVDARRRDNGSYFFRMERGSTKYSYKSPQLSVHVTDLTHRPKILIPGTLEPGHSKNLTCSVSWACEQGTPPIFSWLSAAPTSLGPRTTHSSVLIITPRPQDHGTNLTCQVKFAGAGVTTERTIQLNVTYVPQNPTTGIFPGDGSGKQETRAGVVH

B1: anti-CD33 antibody ANTI-CD33 (antibody, human IgG1, kappa, V domains shown)
VH: EVQLVQSGAEVKKPGSSVKVSCKASGYTITDSNIHWVRQAPGQSLEWIGYIYPYNGGTDYNQKFKNRATLTVDNPTNTAYMELSSLRSEDTAFYYCVNGNPWLAYWGQGTLVTVSS
VL: DIQLTQSPSTLSASVGDRVTITCRASESLDNYGIRFLTWFQQKPGKAPKLLMYAASNQGSGVPSRFSGSGSGTEFTLTISSLQPDDFATYYCQQTKEVPWSFGQGTKVEVKR
notes: also called ANTI-CD33 mAb; naked anti-CD33 antibody
Question: Does B1 bind?
Answer: binds

From US20260137794A1, “LIGAND-DRUG CONJUGATE AND USE THEREOF” (SYSTIMMUNE, INC., priority 2022, published 2026)
